Measurements as given in article PMC4239648.

Biological target: HsiC2Δ1–30, bacterial two-hybrid fusion (P. aeruginosa PAO1)
Test: two-hybrid; bacterial two-hybrid (BTH): T25 and T18 fusions of B. pertussis adenylate cyclase co-transformed in E. coli DHM1; spots on MacConkey maltose and X-gal LB agar, 30 °C, at least 48 h; β-galactosidase activity in Miller units

ClpV2, full length, bacterial two-hybrid fusion (enzyme)
fold reduction of binding against full-length HsiC2: 10 fold
